Test results as given in the supplement of paper PMC9170038.

System: MS2 coat protein
Assay: apparent KD of MS2 coat protein; designed switch direction (-1 OFF switch, 1 ON switch): 1; higher = weaker reporter binding
Summary of the method: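 An oligonucleotide input, 200 uM small-molecule ligand, or no input was present during titration of SNAP-549-labelled MS2 coat protein, which was doubled from 0.7 or 1.5 nM to 3 µM. Designed RNA switches had been transcribed on Illumina chips by stalled E. coli RNA polymerase. Apparent KD per design is the median over clusters of curves fitted to normalised cluster fluorescence.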

[1] = input ligand: microRNA oligo, concentration not stated
[2] = Eterna round: R95, input ligand: microRNA oligo, concentration not stated

Row | Sequence | apparent KD of MS2 coat protein (input ligand: FMN 200 uM) | apparent KD of MS2 coat protein [1] | apparent KD of MS2 coat protein (input ligand: none) | apparent KD of MS2 coat protein (Eterna round: R95, input ligand: FMN 200 uM) | apparent KD of MS2 coat protein [2] | apparent KD of MS2 coat protein (Eterna round: R95, input ligand: none)
1 | UUCACCUUUUUUUACAUGAGGAUCACCCAUGUUUUCCCUACGUAGGAUAUCGAUGCUUGAUUGUUCGAGAAGGACGUUGUAAGU [JR_SSND3_Sub056] (Eterna round: R96, puzzle: Same State NG 3) | 29.6 nM | 20.7 nM | 33.7 nM |  |  | 
2 | GAGUAGGAGUUACAGGAUAUAUGGAGGUGGACAUGAGGAUCACCCAUGUGAGAGAUGAGAGGAGGAUAGAAGGGUAAGGGAGUAA [JR_SS2_Sub029] (puzzle: Same State 2) |  |  |  | 189 nM | 153 nM | 486 nM
3 | GGUGGGUUGCUGCCGGCACAUGAGGAUCACCCAUGUUUUGGGAAGGAUAUGGUACCUCUUUGGUGCCAGAAGGUCCCGUUGGUG [salish99_SSNG3_r04_713] (Eterna round: R96, puzzle: Same State NG 3) | 2020 nM | 503 nM | 1740 nM |  |  | 
4 | GUGGUCAGACAUGAGGAUCACCCAUGUGGAAUAAAUAACGGACAGGAUAUAAAAUAUAGGAUAUAUUAGAAGGGUUGAUUGGUG (Eterna round: R96, puzzle: Same State NG 3) | 43.7 nM | 38.1 nM | 68.4 nM |  |  | 
5 | UGAACCGUCACAGGAUAUCAUGCGAAAAUUGCGUGAGAAGGGUGGAUGUUGUGUUCAAAGUUAUACAUGAGGAUCACCCAUGUU [SameState NG1 #46] (Eterna round: R96, puzzle: Same State NG 1) | 29.8 nM | 45.8 nM | 65.5 nM |  |  | 
6 | CAGCGCUGUCGAGAGGAUAUGCGGUGAUGGACAUGAGGAUCACCCAUGUUAGCGACAGCAUCACGGCAGAAGGCUCUACCCGCUG [Soteed Omei mod 44] (puzzle: Same State 2) |  |  |  |  | 10.6 nM | 
7 | UGACACACGGCAGGAUAUCGAUAGCAAAGCUAUCGAGAAGGGCCUCAUGUCGUGGAAACGUGACAUGAGGAUCACCCAUGUCGC [Omei SS(NG)1 Cv12] (Eterna round: R96, puzzle: Same State NG 1) | 72 nM | 12.6 nM | 26.6 nM |  |  | 
8 | GUGGUCAGACAUGAGGAUCACCCAUGUGGAAUAAAUAAGGAUUAGGAUAUGGAAUAUAGGAUAUACCAGAAGGAAUGGUUGGUG (Eterna round: R96, puzzle: Same State NG 3) |  | 75.8 nM |  |  |  | 
9 | AAAACAUGACGAGGAUAUGGUACAUGAGGAUCACCCAUGUAUGUACCACGACGGAAACGUCGAAUCCAGAAGGCGUCAUGAAAA [Mat - Same State NG 2 - JL mod - D25] (Eterna round: R96, puzzle: Same State NG 2) | 34.6 nM | 173 nM | 194 nM |  |  | 
10 | UUUUCGAACCGAGGAUAUCCUUAUAAGAAACAUGAGGAUCACCCAUGUAAAGGGAAUUAUUUGUAGGAGAAGGCGGAUUUUGUU [JR_SSNG2_Sub054] (Eterna round: R96, puzzle: Same State NG 2) |  | 33.9 nM |  |  |  | 
11 | CACAUCCAGGUAGGAUAUGAGGUGCCAUAGGGAAAAGCCUAUGGACAUGAGGAUCACCCAUGUCCUCAGAAGGGCCGGACGUGA [Ceerbearre] (Eterna round: R96, puzzle: Same State NG 2) | 26.5 nM | 79.6 nM | 96.7 nM |  |  | 
12 | GAGUUACAUGAGGAUCACCCAUGUGGUUGUGGAUAAGGAUAUAUGGUAGGAGGAGGAAUGAUAGAAGGUAUUAGGG [JR_SS1_Sub065] (puzzle: Same State 1) |  |  |  |  | 52.9 nM | 
